Test results from patent US20230220084A1 (DRAGONFLY THERAPEUTICS, published 2023).

Assays:
[1] = biological target: T1, hCLEC12A-His fusion protein (human, UniProt Q5QGZ9 65-265, limits assumed); test: SPR, purified murine mAb, Human CLEC12A-His
T1 construct: Recombinant His-tagged human CLEC12A; also called Human CLEC12A-His; recombinant human CLEC12A
T1 sequence (looked up): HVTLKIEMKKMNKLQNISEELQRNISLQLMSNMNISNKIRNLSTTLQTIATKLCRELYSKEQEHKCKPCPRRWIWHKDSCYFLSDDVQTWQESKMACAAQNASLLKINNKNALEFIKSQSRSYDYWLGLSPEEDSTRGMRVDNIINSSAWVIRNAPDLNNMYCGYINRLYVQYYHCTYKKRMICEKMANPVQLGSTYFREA

[2] = biological target: T1, hCLEC12A-His fusion protein; test: yeast display, flow cytometry
[3] = biological target: T1, hCLEC12A-His fusion protein; test: yeast display flow cytometry with hCLEC12A-his (PE-A against FITC-A)
[4] = biological target: T2, human CLEC12A expressed on cells (human, UniProt Q5QGZ9 1-265); test: flow cytometry, PL21 cells
T2 construct: whole, on cells; also called RMA-hCLEC12A; hCLEC12A+Ba/F3
T2 sequence (looked up): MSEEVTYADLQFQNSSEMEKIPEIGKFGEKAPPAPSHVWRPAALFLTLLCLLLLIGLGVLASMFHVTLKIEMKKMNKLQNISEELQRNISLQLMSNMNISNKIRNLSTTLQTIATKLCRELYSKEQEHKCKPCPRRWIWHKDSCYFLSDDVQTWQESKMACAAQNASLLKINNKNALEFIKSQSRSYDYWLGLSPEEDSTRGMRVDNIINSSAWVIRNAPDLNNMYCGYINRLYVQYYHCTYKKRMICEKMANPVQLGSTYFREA

cCLEC12A-His [5] = biological target: T3, cCLEC12A-His (cynomolgus monkey, UniProt A0A2K5WXQ4 71-271); test: SPR, purified murine mAb, Cyno CLEC12A-His
T3 construct: Recombinant His-tagged cynomolgus CLEC12A; also called Cyno CLEC12A-His; recombinant cyno CLEC12A
T3 sequence: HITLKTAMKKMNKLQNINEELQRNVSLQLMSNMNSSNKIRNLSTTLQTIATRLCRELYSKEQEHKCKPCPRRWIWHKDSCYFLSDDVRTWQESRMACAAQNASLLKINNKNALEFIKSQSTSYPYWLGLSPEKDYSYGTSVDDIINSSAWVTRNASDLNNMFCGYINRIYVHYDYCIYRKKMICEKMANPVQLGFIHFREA

[6] = biological target: T1, hCLEC12A-His fusion protein; test: SPR, purified murine mAb
De-sialylated hCLEC12A = biological target: T4, De-sialylated hCLEC12A (human, UniProt Q5QGZ9 65-265, limits assumed, glycans de-sialylated); test: SPR, analyte de-sialylated hCLEC12A
T4 construct: Same protein as m1 after removal of sialic acid; also called de-sialylated version of hCLEC12A
T4 sequence (looked up): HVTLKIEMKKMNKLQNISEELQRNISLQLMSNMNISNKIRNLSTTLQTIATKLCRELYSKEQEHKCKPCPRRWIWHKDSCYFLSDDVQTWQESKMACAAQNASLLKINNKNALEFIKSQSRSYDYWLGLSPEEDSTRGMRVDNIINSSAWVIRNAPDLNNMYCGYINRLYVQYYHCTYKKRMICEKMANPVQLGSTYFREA

De-glycosylated hCLEC12A = biological target: T5, De-glycosylated hCLEC12A (human, UniProt Q5QGZ9 65-265, limits assumed, N-glycans removed with PNGase); test: SPR, analyte de-glycosylated hCLEC12A
T5 construct: Same protein as m1 after PNGase treatment; also called PNGase-treated hCLEC12A; deglycosylated version of hCLEC12A
T5 sequence (looked up): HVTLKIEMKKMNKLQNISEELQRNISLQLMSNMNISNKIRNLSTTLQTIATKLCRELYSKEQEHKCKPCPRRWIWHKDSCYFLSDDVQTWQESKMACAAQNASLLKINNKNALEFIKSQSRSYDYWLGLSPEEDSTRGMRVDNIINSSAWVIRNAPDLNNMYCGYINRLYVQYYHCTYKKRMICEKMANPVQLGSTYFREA

[7] = biological target: T1, hCLEC12A-His fusion protein; test: SPR screening, fully purified murine mAb
[8] = biological target: T1, hCLEC12A-His fusion protein; test: SPR, analyte glycosylated hCLEC12A
[9] = biological target: T1, hCLEC12A-His fusion protein; test: SPR screening
cCLEC12A-His [10] = biological target: T3, cCLEC12A-His; test: SPR, purified murine mAb

B1: 13E1.A4 (antibody, V domains shown)
VH: EVQLQESGPELEKPGASVRISCKASGYSFTAYNMNWVKQSNGKSLEWIGNIDPSYGDATYNQKFKGKATLTVDKSSSTAYMQLKSLTSEDSAVYYCARDNYYGSGYFDYWGQGTTLTVSS
VL: SVLMTQTPLSLPVSLGDRASISCRSSQGIVHINGNTYLEWYLQKPGQSPKLLIYKVSNRFSGVPDRFSGSGSGTDFTLKISRVEAEDLGVYYCFQGSHVPWTFGGGTKLEIK
notes: Murine mAb purified from the hybridoma subclone
[1]
  binding result: binds

B2: scFv CDRH3 variant YDYDDALDY (SEQ ID NO:141), yeast display (scFv)
scFv: QLQLQESGPGLVKPSETLSLTCTVSGFSLTNYGLHWIRQPPGKCLEWIGVIWSGGKTDYNPSLKSRVTISKDTSKNQFSLKLSSVQAADTAVYYCAKYDYDDALDYWGQGTLVTVSSGGGGSGGGGSGGGGSGGGGSDIQMTQSPSSLSASVGDRVTITCHASQNINFWLSWYQQKPGKAPKLLIYEASNLHTGVPSRFSGSGSGTRFTLTISSLQPEDIATYYCQQSHSYPLTFGCGTKLEIK
[2]
  binding result: binds

B3: scFv CDRH3 variant YDYDDILDY (SEQ ID NO:142), yeast display (scFv)
scFv: QLQLQESGPGLVKPSETLSLTCTVSGFSLTNYGLHWIRQPPGKCLEWIGVIWSGGKTDYNPSLKSRVTISKDTSKNQFSLKLSSVQAADTAVYYCAKYDYDDILDYWGQGTLVTVSSGGGGSGGGGSGGGGSGGGGSDIQMTQSPSSLSASVGDRVTITCHASQNINFWLSWYQQKPGKAPKLLIYEASNLHTGVPSRFSGSGSGTRFTLTISSLQPEDIATYYCQQSHSYPLTFGCGTKLEIK
notes: As m72
[2]
  binding result: binds

B4: scFv CDRH3 variant YDYDDLLDY (SEQ ID NO:143), yeast display (scFv)
scFv: QLQLQESGPGLVKPSETLSLTCTVSGFSLTNYGLHWIRQPPGKCLEWIGVIWSGGKTDYNPSLKSRVTISKDTSKNQFSLKLSSVQAADTAVYYCAKYDYDDLLDYWGQGTLVTVSSGGGGSGGGGSGGGGSGGGGSDIQMTQSPSSLSASVGDRVTITCHASQNINFWLSWYQQKPGKAPKLLIYEASNLHTGVPSRFSGSGSGTRFTLTISSLQPEDIATYYCQQSHSYPLTFGCGTKLEIK
notes: As m72
[2]
  binding result: binds

B5: scFv CDRH3 variant YDYDDTLDY (SEQ ID NO:145), yeast display (scFv)
scFv: QLQLQESGPGLVKPSETLSLTCTVSGFSLTNYGLHWIRQPPGKCLEWIGVIWSGGKTDYNPSLKSRVTISKDTSKNQFSLKLSSVQAADTAVYYCAKYDYDDTLDYWGQGTLVTVSSGGGGSGGGGSGGGGSGGGGSDIQMTQSPSSLSASVGDRVTITCHASQNINFWLSWYQQKPGKAPKLLIYEASNLHTGVPSRFSGSGSGTRFTLTISSLQPEDIATYYCQQSHSYPLTFGCGTKLEIK
notes: As m72
[3]
  binding result: no binding

B6: scFv CDRH3 variant YDYDDVLDY (SEQ ID NO:144), yeast display (scFv)
scFv: QLQLQESGPGLVKPSETLSLTCTVSGFSLTNYGLHWIRQPPGKCLEWIGVIWSGGKTDYNPSLKSRVTISKDTSKNQFSLKLSSVQAADTAVYYCAKYDYDDVLDYWGQGTLVTVSSGGGGSGGGGSGGGGSGGGGSDIQMTQSPSSLSASVGDRVTITCHASQNINFWLSWYQQKPGKAPKLLIYEASNLHTGVPSRFSGSGSGTRFTLTISSLQPEDIATYYCQQSHSYPLTFGCGTKLEIK
notes: As m72
[3]
  binding result: no binding

B7: scFv CDRH3 variant YDYDESLDY (SEQ ID NO:146), yeast display (scFv)
scFv: QLQLQESGPGLVKPSETLSLTCTVSGFSLTNYGLHWIRQPPGKCLEWIGVIWSGGKTDYNPSLKSRVTISKDTSKNQFSLKLSSVQAADTAVYYCAKYDYDESLDYWGQGTLVTVSSGGGGSGGGGSGGGGSGGGGSDIQMTQSPSSLSASVGDRVTITCHASQNINFWLSWYQQKPGKAPKLLIYEASNLHTGVPSRFSGSGSGTRFTLTISSLQPEDIATYYCQQSHSYPLTFGCGTKLEIK
notes: As m72
[3]
  binding result: no binding

B8: 9E4.B7 (antibody, V domains shown)
VH: EVQLQESGAELMKPGASVKISCRTTGYTFSTYWIEWVKQRPGRGPEWIGELFPGNSDTTLNEKFTGKATFTADSSSNTAYMQLSSLTSEDSAVYYCARSGYYGSSLDYWGQGTTLTVSS
VL: GIVMTQSPASLSASVGETVTITCRAGENIHSYLAWYQQKQGKSPQLLVYNAKTLAEGVPSRFSGSGSGTQFSLKINSLQPEDFGSYYCQHHYGTPRTFGGGTKLEIK
notes: as for B1
[4]
  EC50: 0.64 nM
  Max MFI: 186 MFI
cCLEC12A-His [5]
  binding result: no binding

B9: 9F11.B7 (antibody, V domains shown)
VH: EVQLQESGGGLVQPGGSRKLSCAASGFTFNSFGMHWVRQAPEKGLEWVAFISSGSTSIYYANTVKGRFTISRDNPKNTLFLQMTSLRSEDTAMYYCARDGYPTGGAMDYWGQGTSVTVSS
VL: DIKMTQSPSSMYASLGERVTITCKASQDIYNYLSWFQLKPGKSPRPLIYRANILVSGVPSKFSGSGSGQDYSLTINSLEYEDLGIYYCLQFDAFPFTFGSGTKLEIK
notes: as for B1
[4]
  EC50: 0.56 nM
  Max MFI: 217 MFI
[6]
  Kd: 1.4 nM
  koff: 0.00157 s⁻¹
  kon: 1.14e+06 M⁻¹ s⁻¹
cCLEC12A-His [5]
  binding result: no binding

B10: 16B8.C8 (antibody, V domains shown)
VH: EVQLQESGPGLVQPSQSLSITCTVSGFSLTNYGLHWVRQSPGKGLEWLGVIWSGGKTDYNTPFKSRLSISKDISKNQVFFKMNSLQPNDTAIYFCAKYDYDDSLDYWGQGTSVTVSS
VL: DIQMNQSPSSLSASLGDTIAITCHASQNINFWLSWYQQKPGNIPKLLIYEASNLHTGVPSRFSGSGSGTRFTLTISSLQPEDIATYYCQQSHSYPLTFGQGTKLEIK
notes: Murine mAb purified from the hybridoma subclone; also called Murine 16B8 mAb; Murine 16B8. mAb
De-sialylated hCLEC12A
  Kd: 0.007 nM
  koff: 3.62e-05 s⁻¹
  kon: 5.25e+06 M⁻¹ s⁻¹
De-glycosylated hCLEC12A
  Kd: 0.011 nM
  koff: 4.45e-05 s⁻¹
  kon: 4.26e+06 M⁻¹ s⁻¹
[7]
  Kd: 0.008 nM
  koff: 2.35e-05 s⁻¹
  kon: 3.03e+06 M⁻¹ s⁻¹
[8]
  Kd: 0.012 nM
  koff: 4.7e-05 s⁻¹
  kon: 4.05e+06 M⁻¹ s⁻¹
[4]
  EC50: 0.18 nM
  Max MFI: 300 MFI
[6]
  Kd: 0.01 nM
  koff: 4.44e-05 s⁻¹
  kon: 4.05e+06 M⁻¹ s⁻¹
cCLEC12A-His [5]
  binding result: no binding

B11: Merus-CLL1 (antibody, V domains shown)
VH: EVQLVQSGAEVKKPGASVKVSCKASGYTFTSYYMHWVRQAPGQGLEWMGIINPSGGSTSYAQKFQGRVTMTRDTSTSTVYMELSSLRSEDTAVYYCARGNYGDEFDYWGQGTLVTVSS
VL: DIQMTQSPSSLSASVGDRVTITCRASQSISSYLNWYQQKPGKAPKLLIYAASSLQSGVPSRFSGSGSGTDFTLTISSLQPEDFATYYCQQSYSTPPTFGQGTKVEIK
[4]
  EC50: 2.02 nM
  Max MFI: 201 MFI

B12: Genentech-h6E7 (antibody, V domains shown)
VH: EVQLVQSGAEVKKPGASVKVSCKASGYSFTDYYMHWVRQAPGQGLEWIGRINPYNGAAFYSQNFKDRVTLTVDTSTSTAYLELSSLRSEDTAVYYCAIERGADLEGYAMDYWGQGTLVTVSS
VL: DIQMTQSPSSLSASVGDRVTITCRASQSVSTSSYNYMHWYQQKPGKPPKLLIKYASNLESGVPSRFSGSGSGTDFTLTISSLQPEDFATYYCQHSWEIPLTFGQGTKVEIK
[4]
  EC50: 5 nM
  Max MFI: 265 MFI

B13: m9F11-hIgG1 (antibody, V domains shown)
VH: EVQLQESGGGLVQPGGSRKLSCAASGFTFNSFGMHWVRQAPEKGLEWVAFISSGSTSIYYANTVKGRFTISRDNPKNTLFLQMTSLRSEDTAMYYCARDGYPTGGAMDYWGQGTSVTVSS
VL: DIKMTQSPSSMYASLGERVTITCKASQDIYNYLSWFQLKPGKSPRPLIYRANILVSGVPSKFSGSGSGQDYSLTINSLEYEDLGIYYCLQFDAFPFTFGSGTKLEIK
notes: also called chimeric parent mouse 9F11.B7 mAb
[9]
  Kd: 1.07 nM
  koff: 0.00102 s⁻¹
  kon: 950000 M⁻¹ s⁻¹

B14: 15A10.G8 (antibody, V domains shown)
VH: EVQLQESGAELVRSGASIKLSCAASAFNIKDYFIHWVRQRPDQGLEWIGWIDPENDDTEYAPKFQDKATMTADTSSNTAYLQLSSLTSADTAVYYCNALWSRGGYFDYWGQGTTLTVSS
VL: EVLLTQSPAIIAASPGEKVTITCSARSSVSYMSWYQQKPGSSPKIWIYGISKLASGVPARFSGSGSGTYFSFTINNLEAEDVATYYCQQRSYYPFTFGSGTKLEIK
notes: as for B1
[6]
  Kd: 1.6 nM
  koff: 0.000494 s⁻¹
  kon: 301000 M⁻¹ s⁻¹
cCLEC12A-His [10]
  Kd: 3.3 nM
  koff: 0.000659 s⁻¹
  kon: 196000 M⁻¹ s⁻¹
